How the values were obtained:
FcγR2a(H) (human) = FcγR2a(H) (human) (UniProt P12318); test: solid phase binding assay (Meso Scale), receptor coated, antibody titrated
FcγR1 (human) = FcγR1 (human) (UniProt P12314); test: as above
FcγR3a (V) (human) = FcγR3a (V) (human) (UniProt P08637); test: as above
human C1q (human) [1] = molecular target: human C1q (human) (UniProt P02745); test: solid phase C1q binding ELISA, antibody coated in a titration, C1q added
human C1q (human) [2] = molecular target: human C1q (human) (UniProt P02745); test: cell-based or functional assay

Chain of human C1q (human) (P02745 23-245 limits assumed, chain 1 of 3): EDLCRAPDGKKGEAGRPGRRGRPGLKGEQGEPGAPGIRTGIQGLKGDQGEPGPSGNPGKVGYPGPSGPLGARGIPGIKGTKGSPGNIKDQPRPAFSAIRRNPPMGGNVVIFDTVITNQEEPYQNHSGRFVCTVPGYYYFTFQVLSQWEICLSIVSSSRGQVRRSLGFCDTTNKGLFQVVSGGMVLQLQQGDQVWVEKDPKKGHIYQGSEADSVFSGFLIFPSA
Chain of human C1q (human) (P02746 28-253 limits assumed, chain 2 of 3, further chain): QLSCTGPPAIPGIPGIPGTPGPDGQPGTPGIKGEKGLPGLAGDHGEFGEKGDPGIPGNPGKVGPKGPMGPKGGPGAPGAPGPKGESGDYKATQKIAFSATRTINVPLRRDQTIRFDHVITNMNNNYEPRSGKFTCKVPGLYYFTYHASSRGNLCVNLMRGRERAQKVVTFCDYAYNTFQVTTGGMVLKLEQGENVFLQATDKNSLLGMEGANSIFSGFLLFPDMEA
Chain of human C1q (human) (P02747 29-245 limits assumed, chain 3 of 3, further chain): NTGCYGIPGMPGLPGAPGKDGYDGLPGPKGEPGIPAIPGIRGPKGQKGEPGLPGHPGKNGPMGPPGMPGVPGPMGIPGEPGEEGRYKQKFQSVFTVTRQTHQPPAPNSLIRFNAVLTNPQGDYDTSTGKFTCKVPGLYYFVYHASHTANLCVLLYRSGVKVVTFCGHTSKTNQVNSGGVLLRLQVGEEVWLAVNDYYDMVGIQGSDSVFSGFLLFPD
Chain of FcγR3a (V) (human) (P08637 17-208 F176V): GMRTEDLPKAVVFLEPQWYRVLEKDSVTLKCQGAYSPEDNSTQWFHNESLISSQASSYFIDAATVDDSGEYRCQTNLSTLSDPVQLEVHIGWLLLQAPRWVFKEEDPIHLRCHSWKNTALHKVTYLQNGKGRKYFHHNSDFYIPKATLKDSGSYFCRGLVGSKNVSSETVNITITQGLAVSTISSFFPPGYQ
Chain of FcγR2a(H) (human) (P12318 36-218): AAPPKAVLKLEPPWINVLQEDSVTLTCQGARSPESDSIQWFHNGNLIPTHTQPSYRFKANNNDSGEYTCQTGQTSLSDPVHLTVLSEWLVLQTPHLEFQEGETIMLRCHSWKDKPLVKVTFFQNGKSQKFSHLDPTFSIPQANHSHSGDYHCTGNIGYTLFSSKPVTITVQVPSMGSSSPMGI
Chain of FcγR1 (human) (P12314 16-288): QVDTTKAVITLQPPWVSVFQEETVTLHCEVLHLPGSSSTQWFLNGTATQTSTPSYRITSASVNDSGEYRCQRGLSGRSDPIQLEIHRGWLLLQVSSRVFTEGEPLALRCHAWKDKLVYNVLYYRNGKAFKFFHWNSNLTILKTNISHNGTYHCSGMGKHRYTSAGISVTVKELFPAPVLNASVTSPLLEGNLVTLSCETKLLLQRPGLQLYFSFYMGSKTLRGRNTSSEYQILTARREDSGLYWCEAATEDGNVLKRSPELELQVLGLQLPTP

Work on LY3022859 (antibody) yielded an EC50 (FcγR2a(H) (human)) of 48 nM, an EC50 (FcγR1 (human)) of 0.58 nM and an EC50 (FcγR3a (V) (human)) of 5.7 nM. It also gave an EC50 (human C1q (human) [1]) of 19 nM, a CDC activity EC50 (nM), BxPC3 target cells, human complement (human C1q (human) [2]) of over 200 nM and a CDC activity EC50 (nM), HEK293 target cells, human complement (human C1q (human) [2]) of over 200 nM. The CDC activity EC50 (nM), MDA-MB-231 target cells, human complement (human C1q (human) [2]) was over 200 nM and the CDC activity EC50 (nM), TGFRβII-HEK target cells, human complement (human C1q (human) [2]) was over 200 nM.
